Source: the Immune Epitope Database (IEDB)

Columns and labels:
HLA-B*51:01 = test: IEDB peptide-MHC binding, purified MHC/competitive/radioactivity; filed as Kd, often an IC50 or EC50 that approximates it; ≥ and ≤ were set here for values at or beyond the usual limits of such assays
HLA-B*07:02 [1] = test: as above
HLA-B*54:01 = test: as above
HLA-B*53:01 = test: as above
HLA-B*35:01 = test: as above
HLA-B*58:01 = test: as above
HLA-B*57:01 = test: as above
HLA-A*02:01 = test: IEDB peptide-MHC binding, purified MHC/competitive/fluorescence; ≥ and ≤ were set here for values at or beyond the usual limits of such assays
HLA-A*24:02 = test: as above; details: source organism: Sudan ebolavirus
HLA-B*07:02 [2] = test: as above; details: source organism: Sudan ebolavirus
HLA-A*11:01 [3] = test: as above; details: source organism: Sudan ebolavirus
HLA-B*15:01 = test: as above; details: source organism: Zaire ebolavirus
HLA-A*02:03 = test: IEDB peptide-MHC binding, purified MHC/direct/fluorescence; filed as Kd, often an IC50 or EC50 that approximates it; ≥ and ≤ were set here for values at or beyond the usual limits of such assays; details: source organism: Mycobacterium tuberculosis str. Haarlem
HLA-A*69:01 = test: as above; details: source organism: Mycobacterium tuberculosis
HLA-A*32:01 = test: IEDB peptide-MHC binding, purified MHC/competitive/radioactivity; filed as Kd, often an IC50 or EC50 that approximates it; ≥ and ≤ were set here for values at or beyond the usual limits of such assays; details: source organism: Dengue virus 1 Brazil/97-11/1997
HLA-A*11:01 [4] = test: as above; details: source organism: Dengue virus 3 Martinique/1243/1999
[5] = source organism: SARS coronavirus Tor2
[6] = source organism: Dengue virus 3 Martinique/1243/1999
[7] = source organism: Dengue virus 2 Jamaica/1409/1983
[8] = source organism: Lymphocytic choriomeningitis virus (strain WE)
[9] = source organism: Vaccinia virus WR

Question: What does the source list for CPAEIVDTV?
Answer: Kd (HLA-B*51:01; [5]): 1.88 nM; Kd (HLA-B*07:02 [1]; [5]): 893 nM; Kd (HLA-B*54:01; [5]): 9.99 nM; Kd (HLA-B*53:01; [5]): 121 nM; Kd (HLA-B*35:01; [5]): 196 nM

Question: QASTTEAILP was tested. Which Kd (HLA-B*58:01; [6]) did it give?
Answer: 1520 nM

Question: What about the Kd (HLA-B*57:01; [6]) of the same sequence?
Answer: 1960 nM

Question: What does the source list for HTPQFLFQL?
Answer: IC50 (HLA-A*02:01; source organism: Sudan ebolavirus): 2730 nM; IC50 (HLA-A*24:02): 1110 nM; IC50 (HLA-B*07:02 [2]): ≥ 78800 nM; IC50 (HLA-A*11:01 [3]): ≥ 166000 nM

Question: For AASIILEFFL, which Kd (HLA-B*58:01; [7]) is on record?
Answer: 366 nM

Question: What about the Kd (HLA-B*57:01; [7]) of the same sequence?
Answer: 2270 nM

Question: Which results are given for IGLAWIPYF?
Answer: IC50 (HLA-A*02:01; source organism: Zaire ebolavirus): 5680 nM; IC50 (HLA-B*15:01): ≥ 153000 nM

Question: Which results are given for ALLENIHRV?
Answer: Kd (HLA-A*02:03): 2 nM; Kd (HLA-A*69:01): 47.3 nM

Question: With RVWIEENPW as the sequence, how does the Kd (HLA-B*57:01; source organism: Dengue virus 1 Brazil/97-11/1997) read?
Answer: 2.7 nM

Question: And the Kd (HLA-A*32:01)?
Answer: 58 nM

Question: What does the source list for MPEWVNFKF?
Answer: Kd (HLA-B*51:01; [8]): ≥ 20400 nM; Kd (HLA-B*07:02 [1]; [8]): 2210 nM; Kd (HLA-B*54:01; [8]): 1000 nM; Kd (HLA-B*53:01; [8]): 20 nM; Kd (HLA-B*35:01; [8]): 8.71 nM

Question: What does the source list for ASSMINGVVK?
Answer: Kd (HLA-B*58:01; [6]): 1300 nM; Kd (HLA-B*57:01; [6]): 15700 nM; Kd (HLA-A*11:01 [4]): 39.2 nM

Question: RPRVTKQYIV was tested. Which Kd (HLA-B*51:01; [9]) did it give?
Answer: 14900 nM

Question: What about the Kd (HLA-B*07:02 [1]; [9]) of the same sequence?
Answer: 4.55 nM

Question: And the Kd (HLA-B*54:01; [9])?
Answer: 106 nM

Question: What about the Kd (HLA-B*53:01; [9]) of the same sequence?
Answer: 4450 nM

Question: What about the Kd (HLA-B*35:01; [9]) of the same sequence?
Answer: 11500 nM
